According to publication doi:10.1101/695700:

What was measured:
[1] = biological target: recombinant HC1 (rHC1), wild type; heavy chain 1 of inter-α-inhibitor (human) (UniProt P19827); assay: SPR
complement C3 = assay: SPR

Chain of recombinant HC1 (rHC1), wild type; heavy chain 1 of inter-α-inhibitor (human) (P19827 35-672): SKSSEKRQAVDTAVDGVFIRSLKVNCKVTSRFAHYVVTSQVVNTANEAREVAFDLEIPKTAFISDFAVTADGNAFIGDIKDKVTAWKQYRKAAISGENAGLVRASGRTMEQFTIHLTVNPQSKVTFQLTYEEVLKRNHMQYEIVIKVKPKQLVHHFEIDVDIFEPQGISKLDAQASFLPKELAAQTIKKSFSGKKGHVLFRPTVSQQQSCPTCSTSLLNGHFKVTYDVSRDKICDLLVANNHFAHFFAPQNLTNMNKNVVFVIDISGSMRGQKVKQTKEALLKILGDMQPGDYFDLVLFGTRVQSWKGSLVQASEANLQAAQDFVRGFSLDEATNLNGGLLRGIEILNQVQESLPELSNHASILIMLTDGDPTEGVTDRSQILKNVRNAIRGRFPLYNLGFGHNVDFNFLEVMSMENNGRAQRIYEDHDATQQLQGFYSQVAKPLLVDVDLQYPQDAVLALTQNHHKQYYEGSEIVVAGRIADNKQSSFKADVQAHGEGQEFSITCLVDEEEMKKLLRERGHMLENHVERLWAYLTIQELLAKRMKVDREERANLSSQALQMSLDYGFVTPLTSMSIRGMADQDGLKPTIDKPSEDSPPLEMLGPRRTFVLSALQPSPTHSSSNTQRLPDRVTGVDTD

Row | Substance | Kd [1] | Kd (complement C3)
1 | TGFβ3-LAP (small latent complex of TGFβ3) (from UniProt P10600 24-300) | 10 nM | –
2 | inter-α-inhibitor (IαI) (from UniProt P19827 35-672; P19823 55-702) (complex) | – | 660 nM
3 | TGFβ2-LAP (small latent complex of TGFβ2) (from UniProt P61812 21-302) | 10 nM | –
4 | TGFβ1-LAP (small latent complex of TGFβ1) (from UniProt P01137 30-278) | 10 nM | –
5 | LAP (latency-associated peptide from TGFβ1) (domain or fragment) | 2 nM | –
